Source: US20120270273

Columns and labels:
Assay in all cases: cell_activity
[1] = system: Sox2-dTALE (synthetic (Xanthomonas campestris pv. armoraciae Hax3 scaffold)); conditions: mCherry reporter; endogenous SOX2 mRNA up 5.5±0.1 fold (p227)
[2] = system: ZF-VP64 (erbB-2 zinc finger) (synthetic); conditions: mCherry reporter induction, 293FT; positive control
[3] = system: Klf4-dTALE (synthetic (Xanthomonas campestris pv. armoraciae Hax3 scaffold)); conditions: mCherry reporter; endogenous KLF4 mRNA up 2.2±0.1 fold (p227)
[4] = system: cMyc-dTALE (synthetic (Xanthomonas campestris pv. armoraciae Hax3 scaffold)); conditions: mCherry reporter, 293FT

Work on SOX2 proximal promoter site yielded an activity [1] of over 20 fold.
erbB-2 promoter ZF site was tested, and the activity [2] was 16 fold.
For KLF4 proximal promoter site, the activity [3] was over 20 fold.
With c-MYC proximal promoter site the activity [4] was over 20 fold.
